Measurements taken from the DeepSol protein solubility set.

Test: soluble on expression in E. coli; label from the status in PepcDB or PDB records

Sequence | soluble on expression in E. coli
MNYRIIPVTAFSQNCSLIWCEQTRLAALVDPGGDAEKIKQEVDDSGLTLMQILLTHGHLDHVGAAAELAQHYGVPVFGPEKEDEFWLQGLPAQSRMFGLEECQPLTPDRWLNEGDTISIGNVTLQVLHCPGHTPGHVVFFDDRAKLLISGDVIFKGGVGRSDFPRGDHNQLISSIKDKLLPLGDDVIFIPGHGPLSTLGYERLHNPFLQDEMPVW | soluble
MNNEPLRPDPDRLLEQTAAPHRGKLKVFFGACAGVGKTWAMLAEAQRLRAQGLDIVVGVVETHGRKDTAAMLEGLAVLPLKRQAYRGRHISEFDLDAALARRPALILMDELAHSNAPGSRHPKRWQDIEELLEAGIDVFTTVNVQHLESLNDVVSGVTGIQVRETVPDPFFDAADDVVLVDLPPDDLRQRLKEGKVYIAGQAERAIEHFFRKGNLIALRELALRRTADRVDEQMRAWRGHPGEEKVWHTRDAILLCIGHNTGSEKLVRAAARLASRLGSVWHAVYVETPALHRLPEKKRRAILSALRLAQELGAETATLSDPAEEKAVVRYAREHNLGKIILGRPASRRWWRRETFADRLARIAPDLDQVLVALDEPPAR | soluble
SDSSAVITQISKEEARGPLRGKGDQKSAASQKPRSRGILHSLFCCVCRDDGEALPAHSGAPLLVEENGAIPKQTPVQYLLPEAKAQDSDKICVVIDLDETLVHSSFKPVNNADFIIPVEIDGVVHQVYVLKRPHVDEFLQRMGELFECVLFTASLAKYADPVADLLDKWGAFRARLFRESCVFHRGNYVKDLSRLGRDLRRVLILDNSPASYVFHPDNAVPVASWFDNMSDTELHDLLPFFEQLSRVDDVYSVLRQPRPGS | soluble
MLLVMRAKQGKKTPKRKSQGVGNTQGQTPGSNDSDWVDQIGQSVSDGTQPDWSWNESAETASAAVSAQEVDPLTEYQVYKQFGYQGKAAESLAAYLDGIPDGEAKPENLIRELLDINLEVGDVDVLADNLQKYGKLILSELLAKYIEQALQRDSNHLRIRVLAEEGLGWGTQEIEKRAEGGSATAASASPPPDAGGKAYEAEEIKRIPIVRGKKDVSGISQEEIGAIAGLVRADQGAKILKDKVSYETASKQYDRAIQTSEKPANLIIDALKLDYQHADIDRFAGHLWKLYQTLGNYGRQVKERMLGWGYSLGYHEVFDDLEKGPNDRQIKDIGMGHGYLPKNIQKFKSQHRDLVLQDSSLINTGSSPADDAVKEVESLLMYGQIEAAMDVLEQAVLKYPDESQLYITLIDIYERTEDWDRLGQFLRVLRERADRLPEEVVMLMSRLLQRMNQNIKKIKRYGK | not soluble
GKVGDRPIEQQLALGYIKALTEHDYQTLSKYYNRDSVFYDKTADTKYIGTRSIIAFLQRSHEGVLEFDFNIEHMFNTGPLVVMIGNYHLRGPGEQFGKPGKIIDIAIPGVTTLKFDPNTQRLTEQVDLMDYQTMSDQLQSQ | soluble
MFPVSSIGNDISSDLVRRKMNDLPESPTGNNLEALAPGIEKLKQTSIEMVTLLNTLQPGGKCIITGDFQKELAYLQNVILYNVSSLRLDFLGYNAQIIQRSDNTCELTINEPLKNQEISTGNININCPLKDIYNEIRRLNVIFSCGTGDIVDLSSLDLRNVDLDYYDFTDKHMANTILNPFKLNSTNFTNANMFQVNFVSSTQNATISWDYLLKITPVLISISDMYSEEKIKFVESCLNEPGDITEEQLKIMRFAIIKSIPRATLTDKLENELTKEIYKSSSKIINCLNRIKLTEMKEFSSEKIYDYIDIIIEDYENTKENAYLVVPQINYTMDLNIEDSSSEELLSDNTLEKDENSPDNGFEVGEYNTYEAYNSEKQYFTREDYTYDYDLLNAI | not soluble
MGSDKIHHHHHHMQELCSSVVLRKHSWIQYNAMSDTVIKVEKLSKEYRLGTINHGFLFRDLQSWWARRRGKEDPNSLITTYQQHLVSDDNSRLSGGRFLALDDLTFEVRQGDALGIIGRNGAGKSTLLKIISKVTSPTSGVVKIRGRVASLLEVGTGFHPELTGRENIYLNGAISGMNKKEIKNKFDEIVAFSGVEKFIDSPVKRYSSGMYVRLAFAVAAHLGPEILIVDEVLAVGDIQFQKQCLGKMDDISKGGRTVVFVSHSLQTIASLCRECILLDQGKIKKRGLPSEVILEYLGEGGSSCADFTKLGRTVGDNFVQLVMGIVQDANNEVITEIDIREPLKISMHFTVKQDTSIRYIPNFHFTVPGGTYAFVSSPSSISELSSGNYIATCNIPGNFLNEGTYYVGLAITSYEPGMTIHFFEPNVLTFSIRDPMENCVGRYGFGYANVMPGIVRPNLDWDVRKSG | not soluble
MFNIMLVKFVVIFALILASCRVEADNTSVLPEGFVDAAQRSTHTNNWAVLVDASRFWFNYRHVANVLSIYRSVKRLGIPDSQIILMIADDMACNARNPRPGQVYNNANQHINVYGDDVEVDYRGYEVTVENFVRLLTGRTQNGTARSKKLLSDAGSNVLIYLTGHGGDGFLKFQDSEEITSQELADGIQQMWEKKRYNELFFMVDTCQAASLYEKFTSPNVLAVASSLVGEDSLSHHVDPSIGVYMIDRYTYYALEFLEKVQPFSKRTIGEFLQVCPKRVCISTVGVRKDLYPRDPHKVPITDFFGAIRPTRVSTDRINVTLANEELEHHHHHH | not soluble
MVCDFSQVRLRLADDGWRGTTTRREKDDAEDVEGKVTLRLRYTKTGAMRFLSHLEMIGLFTRAVGRSRIPIRFSRGFHPHPKFSFATALSVGVESWAEYLDMELFPGADPTDIGTRLNGALPEGVRIVEASVIPPGSPSLSVIMDKVRYRVTLPPEAAVGLPELAAAFLARESVPLRREKKGRVLEHHHHHH | not soluble
MSLQPVPDAGPWGDYLCDSPWALINSSIYAMKEIEPEPDFILWTGDDTPHVPDEKLGEAAVLEIVERLTKLIREVFPDTKVYAALGNHDFHPKNQFPAGSNNIYNQIAELWKPWLSNESIALFKKGAFYCEKLPGPSGAGRIVVLNTNLYYTSNALTADMADPGQQFQWLEDVLTDASKAGDMVYIVGHVPPGFFEKTQNKAWFREGFNEKYLKVVRKHHRVIAGQFFGHHHTDSFRMLYDDAGVPISAMFITPGVTPWKTTLPGVVNGANNPAIRVFEYDRATLSLKDMVTYFMNLSQANAQGTPRWELEYQLTEAYGVPDASAHSMHTVLDRIAGDQSTLQRYYVYNSVSEGHHHHHH | soluble
MGSDKIHHHHHHMLKNDRWITEQAAAGMLEPFQAGLIRHLDPEQHQRPVLSFGCSSFGYDLRLSAKEFLIFRHVPGTVMNPKRFNPANLESTPLHQDEDGEYFILPAHSYGLGVALEKMKVPSNITVICLGKSTYARLGIIVNTTPAEASWEGHLTLEFSNSSGADCRIYANEGICQLLFFEGDPCDTTYSDRQGKYQHQPERVTLARI | not soluble
MIYVTFTPYGAFGVKDNKEVSGLEDIEYKKLFNEEEIPDIMFKLKTQPNKIADELKEEWGDEIKLETLSTEPFNIGEFLRNNLFKVGKELGYFNNYDEFRKKMHYWSTELTKKVIKSYAQQKDKIIIQVAEAISDLDKTLNLLSERLREWYSLYFPELDHLVNKHEVYANLITKLGKRKNFTKSQLKKILPSKLAGKIAEAAKNSMGGELEDYDLDVIVKFAEEINHLYEKRKELYNYLEKLMNEEAPNITKLAGVSLGARLIGLAGGLEKLAKMPASTIQVLGAEKALFAHLRMGVEPPKHGIIYNHPLIQGSPHWQRGKIARALACKLAIAARADYVGDYIADELLEKLNKRVEEIRRKYPKPPKKKKKEKPKAKKKEKKGKKEKSKKKKDKKKDKKGKKERKVIGKTKSRKLEHHHHHH | soluble
MTQLRHFSHGASVFDIDSVEDFTEKVIQSSVPVIVDFHAEWCGPCQALGPRLEEKVNGRQGSVLLAKINVDHAGELAMDYGISAVPTVFAFKNGEKISGFSGVLDDEQLDDFIEDVLAA | not soluble
PTPPNWNMTSSGLEVKSPGDGILTPGENMELVAAVCSACHSLHMVTQQGLSRQRWDESLDWMIEEQGMEDLSGDDREAILEYLSTYYGG | not soluble
SEITETLCIFIKTPYISEWSLNNAIINAKKYNLNLKVIKIDKIIKNVPERCYLCKKMFFEILTKEKEKYNYDVVVDGTNYDDLFEDRPGLRAKEEFNIGSPFADFKIGKKDILEIAKELNINIPPKET | not soluble
MIASIFGKITFVGKRKIIVEANCISYWFNVKENHSFEKNLEKPRQVFCQIIKRMVTNQILEEGFA | not soluble
MQLIPFEIPGILVGRFEKCSDNKREDERQRISLLLRRVFPHDTPQIGHLPSGKPILDSAHNISISHTGSYGAIYVTPSSLIPGIDIEMLSDRALRVAPRFMNEREYEWLMSADEARRRLLATIIWSAKETAYKIFNPSDASLKRFDVALPFELPSENTLFSFELIYSDSCTGDIHIPVQALCTGEFILTCACHCSHSR | not soluble
MAITAQMVKELREKTGAGMMDCKKALTETNGDMEKAIDFLREKGIAKAAKKADRIAAEGLTFIETNGNDGLILELNSETDFVAKNEGFQTLIKELAAHLLANKPANVEEAMAQTMENGKKVEEHINEAIAKIGEKLTLRRFEIVSKTDADAFGAYLHMGGRIGVLTVLEGSTDEAAAKDVAMHIAAVNPKYIDRDAVTAEEVEHERQVLTQQALNEGKPEKIVAKMVEGRLGKFFEEICLLDQAFVKNPDMKVRQFVESKGGTLKGFVRYAVGEGIEKREDNFAEEVMNQVKGSN | not soluble
STQDADRTLKRLQLQMDNLESRVALECKEAFAELQTDINELTNHMDGVQIPFLDYRTYAVRVLFPGIEAHPVLKELDTPPNVEKALRLFGQLLHSRAFLLTFIHTLEAQSSFSMRDRGTVASLTMVALQSRLDYATGLLKQLLADLIEKNLESKNHPKLLLRRTESVAEKMLTNWFTFLLHKFLKECAGEPLFLLYCAIKQQMEKGPIDAITGEARYSLSEDKLIRQQIDYKTLTLHCVCPESEGSAQVPVKVLNCDSITQAKDKLLDTVYKGIPYSQRPKAEDMDLEWRQGRMARIILQDEDITTKIECDWKRVNSLAHYQVTDGSLVALVPKQVSAYNMANSFTFTRSLSRYESLLRAASSPDSLRSRAPMLTPDQEAGTKLWHLVRNHDHTDHREGDRGSKMVSEIYLTRLLATKGTLQKFVDDLFETVFSTAHRGSALPLAIKYMFDFLDEQADQRQISDPDVRHTWKSNCLPLRFWVNVIKNPQFVFDIHKNSITDACLSVVAQTFMDSCSTSEHRLGKDSPSNKLLYAKDIPNYKSWVERYYRDIAKMASISDQDMDAYLVEQSRLHANDFNVLSALSELYFYVTKYRQEILTSLDRDASCRKHKLRQKLEQIITLVSSSS | soluble
MGSDKIHHHHHHMSTNPSLPWHAGELALQARVGVAAKMEDVGRRVMRDYMPDQHREFFAQMPFVVLGTVAPDGRVWATLRAGRPGFLQSPDARILELRLPREAADPADAGMEDGQPLGLLGIDLMTRRRNRMNGVLRRADRDGADLRIDVVQSFGNCPRYIQQRAFRFTRDPSEQTTIAPLAMGALDSRARALIASADAFFVASYADRPEAGRQVDVSHRGGEPGFVRIDADGGLTIPDFAGNLFFNTLGNFMVNPAAGVTFADFDTGELLQMSGRVEVIVDSPEIAAFQGAERLWRFFPEKIVRREAALPMRWARAGDAADE | not soluble
MSLKNIRHIYYVSENTGLLAKDSGKSLLCQFPGVEFQEELLPFIRTKDDAQRTINAIREKCGEEKPIIFSTIFDPEINKILQHEDVILLNICEPFLTQLEGMLGKNALRASGHSRNVDQQIMSNRVDAIHYTISHDDGTAIMDYEEADLIIVGVSRSGKTPISVFLATQMGIKTANYPLVEQDLTFCQLPEDIIKNKHKVVGLSISPDVLHTFREQRYKGSHYAQMSTCKRETLQSKRIFEKYDLPVVFSDARSIEETATQVAQELSKQWNPIFEGHHHHHH | soluble
MSRRSNRTINLPAPYLKRIWLDPSQVHDREAYPFCLPIFPDDFELSFDAAITIIVGENGTGKSTILEGIAALAGYDDAGGGKGYMPVDHSDAREKMGGQLSKALRASWLPKITNGWFFRAESFFSVARYLDKAARDAGQVGPDFLSHSHGEGFLRFFEERCQRQGIFIFDEPESALSPARQIEFLKLLRRMDDSRICQVIMATHSPMLMAYPNAKLLRLGKYGLEPVTVEETDHYRLMREFCDDPRGFVEATLAELEHHHHHH | soluble
